The results in this text go back to patent US20230104540A1 (NEURACLE SCIENCE, published 2023).

One assay deals with FAM19A1 mutant M6 (Mus musculus (Mouse), UniProt Q7TPG8 20-133). Description: ELISA on plate-coated mutant, anti-hKappa-HRP detection. Background: ELISA stands for enzyme-linked immunosorbent assay.
A further assay has as its target Fam19A1-M1. Description: ELISA on coated FAM19A1 protein (500 ng), one antibody amount, anti-hKappa-HRP (Example 4).
Another assay concerns the target Fam19A1-M2. The description is as above.
The next assay has as its target Fam19A1-M3. The assay is described as above.
Another assay deals with Fam19A1-M4. The description is as above.
For the next assay, the target named is Fam19A1-M5. The assay is described as above.
Another assay has as its target Fam19A1-M7. The assay is described as above.
The target of assay [1] is Wild-type FAM19A1 (Table 10) (Mus musculus (Mouse), UniProt Q7TPG8 20-133). The assay is described as above.
In assay [2] the target is T1, FAM19A1 protein (ELISA of Example 3) (Homo sapiens (Human), UniProt Q7Z5A9 20-133). Kind of assay: ELISA, IgG titrated from 0 to 100 nM on FAM19A1 protein (Example 3); Kd row of the table under the graph, R square 0.9527, the concentration axis reads Cons (nM); fitted curve levels off at A450 about 2.8, last point at 100 nM about 3.1.
The target of the next assay is T2, CD58-Fc (UniProt P19256 29-215, limits assumed).
T2 construct: Control antigen
T2 sequence (looked up): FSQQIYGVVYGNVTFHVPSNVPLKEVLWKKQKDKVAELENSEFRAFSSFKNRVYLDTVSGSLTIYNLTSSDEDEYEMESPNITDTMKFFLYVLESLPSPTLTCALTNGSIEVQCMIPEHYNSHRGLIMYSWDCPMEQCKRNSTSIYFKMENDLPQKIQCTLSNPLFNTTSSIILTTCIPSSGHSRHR
Kind of assay: mono scFv-phage ELISA on coated antigen, single point (Example 2).

The target in another assay is T3, hRAGE-Fc (human (by the label hRAGE), UniProt Q15109 23-344, limits assumed).
T3 construct: Control antigen
T3 sequence (Q15109 23-344 limits assumed): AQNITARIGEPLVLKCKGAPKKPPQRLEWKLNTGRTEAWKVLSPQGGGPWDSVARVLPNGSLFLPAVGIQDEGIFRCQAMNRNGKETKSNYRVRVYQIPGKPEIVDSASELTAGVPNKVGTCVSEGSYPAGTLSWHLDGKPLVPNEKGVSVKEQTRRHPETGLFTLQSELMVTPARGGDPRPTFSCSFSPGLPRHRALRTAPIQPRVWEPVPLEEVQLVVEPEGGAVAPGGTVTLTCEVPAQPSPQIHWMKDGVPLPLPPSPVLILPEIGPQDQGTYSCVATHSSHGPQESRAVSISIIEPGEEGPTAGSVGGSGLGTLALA
The description is as above.

A further assay addresses T4, AITR-Fc (UniProt Q9Y5U5 26-161, limits assumed).
T4 construct: also called AIRTR
T4 sequence (looked up): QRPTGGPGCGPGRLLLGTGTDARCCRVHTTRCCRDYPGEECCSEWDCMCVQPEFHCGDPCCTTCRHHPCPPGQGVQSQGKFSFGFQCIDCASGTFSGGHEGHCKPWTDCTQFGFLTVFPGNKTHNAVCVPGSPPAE
The assay is described as above.

Assay [3] has as its target T1, FAM19A1 protein (ELISA of Example 3). Kind of assay: ELISA, IgG titrated from 0 to 100 nM on FAM19A1 protein (Example 3); Kd row of the table under the graph, R square 0.9168, the concentration axis reads Cons (nM); the curve is faint and not told apart from that of 1A11.
The target is the same in assay [4]. Kind of assay: ELISA, IgG titrated from 0 to 100 nM on FAM19A1 protein (Example 3); Kd row of the table under the graph, R square 0.9106, the concentration axis reads Cons (nM); fitted curve levels off low, at A450 about 0.75.

B1: anti-FAM19A1 IgG1 antibody clone 1C1 (antibody, V domains shown)
VH: QVQLVESGGGVAQPGRSLRLSCAASGFAFSDYGIHWVRQAPGKGLEWVALISYDGSKRSYADSVKGRFAISRDNSKNTLYLQMNSLRAEDTAVYYCARPGDYALAFDLWGQGTMVTVSS
VL: QTVVTQEPSFSVSPGETVTLTCGLSSGSVSTSHFPSWYRQTPGQAPRPLIDSRNARSIGVPDRFSGSIVGTKATLTISGAQAEDECNYYCALYMGRGNWVFGGGTKLTVL
notes: also called A1-1C1; FAM19A1-1C1
For orientation: Kd means the equilibrium constant for the complex coming apart. Lower therefore signals higher affinity. As to B1, the binding result with FAM19A1 mutant M6 is recorded as “no binding”; in the assay with Fam19A1-M1, “binds”; with Fam19A1-M2 it was “binds”; in the assay with Fam19A1-M3, “binds”; in the assay with Fam19A1-M4, “binds”; with Fam19A1-M5, “binds”. The binding result (in the assay with Fam19A1-M7; in assay [1]) was “binds” throughout. This molecule showed a Kd in assay [2] of 1.13 nM.

B2: Anti-FAM19A1 1C1 mono scFv-phage clone (scFv, V domains shown)
VH: B1 VH
VL: B1 VL
For the molecule B2, the binding result with CD58-Fc, in the assay with hRAGE-Fc and in the assay with AITR-Fc was “no binding” in each case.

B3: anti-FAM19A1-3A8 (antibody, V domains shown)
VH: QVQLQQSGPGLVKPSETLSLICSVSGDAITSGSYYWGWIRQSPGRGLEWIGEISHSGSTDYNPSLKSRVTISVDKSRNQFSLRLNSVTAVDTAVYYCAGDTALVGAYSIWGQGTMVTVSS
VL: SYELTQAPSLSVSPGQTANIICSGDNLRTKYVSWYQQKPGQSPLLVIYQDTRRPSGIPARFSGSNSGNTATLTISGTQTRDESTYYCMTWDVDTTSMIFGGGTKLTVL
notes: also called anti-FAM19A1 IgG1 antibody clone 3A8
Molecule B3 gave a Kd in assay [3] of 56 nM.

B4: Anti-FAM19A1 3A8 mono scFv-phage clone (scFv, V domains shown)
VH: B3 VH
VL: B3 VL
Regarding B4, the binding result in the assay with CD58-Fc, with hRAGE-Fc and in the assay with AITR-Fc was “no binding” throughout.

B5: anti-FAM19A1-2G7 (antibody, V domains shown)
VH: QVQLVESGGGLVKPGRSLSLSCTTSGFPFGDHAINWVRQAPGKGLEWVGFIRSNTYGGTTQYAASVEGRFTISRDDSKSIAYLQMNSLRAEDTAVYYCTKDITGGGFWSDYGDYFDAFDFWGQGTMVTVSS
VL: SYELTQPLSVSVSPGQTASISCSGDKLGYKYASWYQQKPGQSPVVVIYQDKKRPSGIPERFSGSNSGNTATLTISGTQPMDEADYYCQAWDSGTASHVFGTGTKVTVL
notes: also called anti-FAM19A1 IgG1 antibody clone 2G7
As for B5, binding in assay [4] was characterised by a dissociation constant (Kd) of 1.89 nM.

B6: Anti-FAM19A1 2G7 mono scFv-phage clone (scFv, V domains shown)
VH: B5 VH
VL: B5 VL
Turning to B6, the binding result in the assay with CD58-Fc, in the assay with hRAGE-Fc and with AITR-Fc was “no binding” each time.

B7: anti-FAM19A1-1A11 (antibody, V domains shown)
VH: QVQLVESGAEVRKPGASVKVSCKASGYSFTGYDINWVRQAPGQGLEWMGWMNPSSGNTGYAQKFQGRVTMTRDSSISTAYMELSSLRSEDTAVYYCARALNSVYYYHALDVWGQGTTITVSS
VL: SYELTQPPSASVSPGQTASITCSGDRLHNKYTSWYQQKPGQSPLLVIYQDAKRPSGIPERFSGSSSRGTATLTISGTQATDEADYYCQTWDRSTGVFGTGTKVTVL
notes: also called anti-FAM19A1 IgG1 antibody clone 1A11; A1-1A11-Ybio
For the molecule B7, the binding result in the assay with Fam19A1-M1 and in the assay with Fam19A1-M2 was “binds” each time.

B8: Anti-FAM19A1 1A11 mono scFv-phage clone (scFv, V domains shown)
VH: B7 VH
VL: B7 VL
Turning to B8, the binding result with CD58-Fc, with hRAGE-Fc and with AITR-Fc was “no binding” in each case.
